This series is described as follows: label from the status in PepcDB records.
For “NNQIGFCGVRKNINGNLYLLVYGMPAAINIDPIEKKPILHMYPNSLIYSISTVGCSFACQYCQNYDISQRRNIEGFDYSPEEIVNSAIEDGCRGIAYTYNEPSIFMEFAHDVGILARKRGLINIFVTNGYETPEAVEYSKDFLDAATVDFKGNASNDFYRKYISVPSADPIFDTIKLMKESGIHVEITDLVVPRVGDKLSDARSMLERLISILGYEFPISFLRFHPDYKMMDLPPTPLETLKAHYNLAVSMGLKYVYIGNVPGYYEDTYCPNCHSLLIKRHGFNSSVV”, the protein production entry was “failed”.

In the case of “NNTPIGTLRIGCSSTMAQNVLARITAKMLKEYPGLSVNLVTGIPAPDLIADGLDVVIRVGALQDSSLFSRRLGSMPMVLCAAKSYLAQAGNPEKPADLAGHAWLEYSVRPDNEFVIIAPEGISTRLTPQGRFVTNDPMTL”, the protein production result is “failed”.

For the sequence “NPQIREEVALDTQTGANPSAEELADGDIQAVAQAANERTGALFVVITDGLGIRLSHPDEERLGEQVSTSFEAAMRGEETMAWETGTLGASARAKVPIFAPDSSVPVGEVSVGFERDSVYSRLPMFLAA”, the protein production result is listed as “failed”.

As to “NQQTPTFYVHGFQGSAKSTNTLIAHAEKTAHAHKVLVATVSTSGQVTLTGKWRGRVRNPIIQVVFKNNLAQYDQQSAWLAKVITTVQQQHAFKHYNIVAHSAGCVASVNMLMTQQTTTFPKINKLVTIAGPFDGVVGEDDVANQNSFLTSGQPKYLHAAYELLAAKRNNFPKNVQLLNIVGTLNDGSHSDSLVTNVSARSIKYLLRGRDVDYTEKDFYGAHAQHSQLHENAKVALAVDRFLWHR”, the protein production result is given as “failed”.

For the sequence “NRCTFACVFCQNYDIVYEDDYIVDARELAYIIDVRRRQGSKNVNFVGGNPDQHAHTIAEILLYVESNVPVVWNSNMYHSEELAEVIEDFVDVWLGDFKYGNDECARKYSKVANYWKVVTRNFLRAKENG”, the protein production result is “failed”.

On to “NRLLSKYDPQKEAELRTWIEGLTGLSIGPDFQKGLKDGTILCTLMNKLQPGSVPKINRSMQNWHQLENLSNFIKAMVSYGMNPVDLFEANDLFESGNMTQVQVSLLALAGKAKTKGLQSGVDIGVKYSEKQER”, for which the protein production entry is given as “not failed”.

For “NSTWSGESKTLVLSNLSYSATEETLQEVFEKATFIKVPQNQNGKSKGYAFIEFASFEDAKEALNSCNKREIEGRAIRLELQGPRGSPN”, the protein production result is reported as “not failed”.

For “NTDYYGLDYALSFNQVEIEEKRIVIAGSGGIARTVIRYMLDHGAHRVDVLTRNAQNARRNLDIPGIGLHENIDEDYDIYVNCTPLGTLGDGDPFSTVDFRSGRTGIDLVYNPPDTPFLKRMRNAGGRTVSGLDVFIGQGLRTLELVFGIRPDSIFREYAVEALNEIR”, the protein production result was “failed”.

Regarding “NTITVSELLELIKKEDVIIVDTRSPREFKEETLPGAINIPLFLDDEHALIGKTYKQESREKAIEIATDIVEKSLKRILNEAKKLDRDKLIVVFCARGGMRSQTMALILQLLGFKVKRLIGGFKAFKHA”, the protein production result was “not failed”.

With “NVAYPLGEGLLSFAESLESQKIHFTTEVITSRIEPANRYVAEKLRITPGQDILYLERLRSIGDEKAMLIENRINIELCPGIVEIDFNQHNLFPTIESLSKRKIRYSESRYAARLIGNERGHFLDISEDAPVLHLEQLVFFSRELPVEFGNVWLKGNKYYLGTVLQRRELS”, the protein production entry is on record as “not failed”.

As to “NVVLRILAWLLAVGLVVLPVVAVLNGWVGAERWPLAKLRVSGDFKRVSAEELRAVVLPYVRSGFFAVRLPQVQDAVERLPWVERAHVSKRWPDVLEVSVVEHQPFARWGSDRMLSEQGRLFPVPGGLKNLKLPQLGGPDMKVRDVVALYKASSALFASTGLDVSWLQMDARGSWSLGLSNGLQIFVGRDDARARLERFARVLPQLLDPQRPVVRADLRYTN”, the protein production entry is on record as “failed”.

“NVYDLANELERAVRALPEYQAVLTAKSAIESDADAQVLWQDFLATQSKVQEMMQSGQMPSQEEQDEMSKLGEKIESNDLLKVYFDQQQRLSVYMSDIEKIVFAPMQDL”: the protein production entry was “not failed”.

For the sequence “PASGVRPAEAADLAAVAAYDSACSPADRPRFLEHWLAGPGHRTFVRLVDGRLTGYGVVRPALDSLRVGPLFADSAEDARALFTALTADAGEIAMDIPETNTAAVALAREAGLTPSFETARMYTGPVRPFAADRVYGITSLELG”, the protein production result is listed as “failed”.

On to “PDHKMSDVDTRHVAGLMRINHTGEVCAQALYQGQALTAKLPKVRKAMEHAAEEEIDHLVWCEQRIHQLGSHTSVLNPLFYGLSFGIGAVAGVISDRVSLGFVAATEDQVCKHLGEHLEQLPIEDGKSRAILEQMLSDEEHHAE”, for which the protein production result is “failed”.

Regarding “PDMDPRCPARADPRKLHDAIARFGVNHLFGSPALLRVLAEYGKPLPTLRCVTSAGAPVPPYVVAQIRALLSDEAQFLTPYGATECLPIAVIESRE”, the protein production entry was “failed”.

Take “PDVDGMITLKVDNLTYRTSPDSLRRVFEKYGRVGDVYIPREPHTKAPRGFAFVRFHDRRDAQDAEAAMDGAELDGRELRVQVARYGRRDL”: the protein production result is recorded as “not failed”.

Regarding “PELKCPVIGCDGQGHISGKYTSHRTASGCPLAAKRQKENPLNGASLSWKLNKQELPHCPLPGCNGLGHVNNVFVTHRSLSGCPLNAQVIKKGKVS”, the protein production result was “not failed”.

Regarding “PELPTCLTRRLADYATEKPLVRLFFQGEEATVPFISQTSRELNMDINILLANIDRFDGVTCGVLVVELTANPLLLEAFINRCEQAGITVEVLGYVLPDGL”, the protein production result is “not failed”.

As for “PETYGRLVEPTTLKIERLLPGPIERVWAYLTQSDLRRRWLASGEMRLAPDAPFELVWRNDELSDPPGHRPEGFSEEEKMASRIITVVPPHHLVFSWGESGEVSIELQALGKDVLLTLIHRRLVGRKTKLDVSAGWHVHLDILAARLQEKEPAPFWDTWLALKEEYEPR”, the protein production entry is recorded as “failed”.

On to “PEVGSSEHKLKIRNIKLSDYDDIFEIMESVYADIGGPWTKKELRSHLNHFPEGQICIEDNGKVIAAAFSLIVNYSNYGDKHTYQQITGDGLLTNHDPEGDTLYGIDIFVHPEFRGLRLGRRLYDARKELCEKLNLRAIIVGGRIPGYKNFAKKLTPRQYIEEVKKKEIFDPVLTFQLANDFHLRKIIQGYLPDDRDSKAYAALLEWKNALYEIEE”, for which the protein production result was “failed”.

For “PGAAPGLFALESAIDEMALASGMDPLAFRKLNLSDKDQSVGLPWSSNHLPEAIDKAAERFGWQARKAAVGSMREGDEIIGYGMGACNWEAHQVPTDARVVLRSDGTALAQCGLQDIGTGTYTIVAQTVSELTGIPIERVEVELGSSSFPPGPVSGGSWVTASVMPAIAGATREALQKLRQYAISKDAVFAGQDPESIKVENGQLVMGEQRASFVDVLKGQRLSRAEGNFQSGMPEAGKYSFRSFGVHFVEVRWDPGISSLRVSRVVSAIDVGKVINPLAARNQVEGAIVMGIGMALFEAGEYDPRSGMPVNNNYAEYVVPVHADQPDIDVMLLDYPDYNLGEFGARGIGEIGVTGLAAAVANAVYHATGKRVRSLPITKEKLMAGL”, the protein production entry is “failed”.

Take “PGAPSTVRISKNVDGIHLSWEPPTSPSGNILEYSAYLAIRTAQMQDNPSQLVFMRIYCGLKTSCTVTAGQLANAHIDYTSRPAIVFRISAKNEKGYGPATQIRWLQGNSK”: the protein production result is recorded as “not failed”.

With “PGFIDMHAHSELRLFENPGAREKLTQGITTEVLGQDGVSVAPVPPNLTDEWAERVKSLDGTLGETWPWHTVSGYLEALESVEPAVNCAYYAPHGNIRSMLAGFEDRPLSGEHVVAAGPVTGQRLDRPKSDHDTAPGELDAIRQELEVALEEGAFGMSKGMIYPPSSYARDDELVALADTLAKRDSFMISHVWNETDRVVESIDRYLDICRRGGCHAHVSHLKVGGQQNWGDSEAVLDLFDDAVDRGQRVTFDQYPYTAGSTMLTALLPPWARQGDSEAIRHRLNSAAVRDRIAADISQPGDWENLAYAAGSWDNILITRTGSGRYQGDTIADIAAEMDREPVDAMCELLVAEELDVTMADFVMAETDIERFLADDRGTFCTDGIFGGKPHPRAIGAFSRILERYVRERNVLSPELLAYKAAGNPADILG”, the protein production entry is reported as “failed”.

As to “PGLRELCIQKAPGERLGISIRGGARGHAGNPRDPTDEGIFISKVSPTGAAGRDGRLRVGLRLLEVNQQSLLGLTHGEAVQLLRSVGDTLTVLVCDGFE”, the protein production result is “not failed”.

The values are drawn from a protein production outcome set (Wang et al. 2014).
